Positions count from the first letter of the chain named. Numbers in names are those of the source.
T1: HMGB1 C-terminal region synthetic peptide #9 EDEDEEEDDDDE
T1 construct: Synthetic peptide (SIGMA-ALDRICH, PEPScreen), dotted at 4 µg/spot on nitrocellulose
T1 peptide: EDEDEEEDDDDE

T2: HMGB1 most C-terminal 8 residues synthetic peptide #10 EEEDDDDE
T2 construct: Synthetic peptide (SIGMA-ALDRICH, PEPScreen), dotted at 4 µg/spot on nitrocellulose
T2 peptide: EEEDDDDE

T3: human-derived recombinant HMGB1 (expressed in Sf9 cells) (human, UniProt P09429 1-215, limits assumed)
T3 construct: Purified from baculovirus-infected Sf9 cells on Ni-NTA; also called Sf6-expressed recombinant human HMGB1; Sf6-derived recombinant HMGB1
T3 sequence (looked up): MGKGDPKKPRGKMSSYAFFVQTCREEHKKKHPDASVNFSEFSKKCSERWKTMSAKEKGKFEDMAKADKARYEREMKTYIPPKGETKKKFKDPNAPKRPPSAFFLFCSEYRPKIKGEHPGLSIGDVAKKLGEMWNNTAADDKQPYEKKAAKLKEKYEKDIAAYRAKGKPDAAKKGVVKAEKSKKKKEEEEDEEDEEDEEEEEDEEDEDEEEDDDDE

T4: bovine thymus-derived HMGB1 (bovine, UniProt P10103 2-215)
T4 construct: Bought protein from tissue
T4 sequence (looked up): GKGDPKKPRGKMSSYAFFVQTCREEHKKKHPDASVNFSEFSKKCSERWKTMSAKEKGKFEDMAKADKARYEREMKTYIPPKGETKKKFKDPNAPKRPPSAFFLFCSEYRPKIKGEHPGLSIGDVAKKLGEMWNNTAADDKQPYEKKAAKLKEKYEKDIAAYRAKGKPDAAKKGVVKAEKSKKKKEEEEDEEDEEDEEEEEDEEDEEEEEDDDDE

B1: #10-22 humanized antibody EV007156 (antibody, human IgG1, lambda, V domains shown)
VH: EVQLVESGGGLVQPGGSLKLSCAASGFTFSNAAMYWVRQASGKGLEWVARIRTKPNNYATYYADSVKGRFTISRDDSKNTAYLQMNSLKTEDTAVYYCTAPRRTEGIVSSGVDYWGQGTLVTVSS
VL: YELTQPPSVSVSPGQTASITCSGDELPKRYAYWYQQKPGQSIVRVIYKDSERPSGIPERFSGSSSGTTATLTISGTQAEDEADYYCHSTYSDDKLPVFGGGTKLTVLG
notes: also called EV007156H + EV007156L
B2: #10-22 chimeric antibody (antibody, human IgG1, lambda)
heavy: not shown
light: YELIQPPSASVTLGNTVSITCSGDELPKRYAYWYQQKPDKSIVRVIYKDSERPSGISDRFSGSSSGTTATLTIRDTQAEDEADYYCHSTYSDDKLPVFGGGTKLTVLGQPKAAPSVTLFPPSSEELQANKATLVCLISDFYPGAVTVAWKADSSPVKAGVETTTPSKQSNNKYAASSYLSLTPEQWKSHRSYSCQVTHEGSTVEKTVAPTECS
notes: Rat #10-22 variable regions with human IgG1(lambda) constant regions; also called #10-22 chimera
B3: R76S (antibody, human IgG1, lambda, V domains shown)
VH: AVQLVESGGGLVQPKESLKISCAASGFTFSNAAMYWVRQAPGKGLEWVARIRTKPNNYATYYADSVKGRFTISRDDSKSMVYLQMDNLKTEDTAMYYCTAPRRTEGIVSSGVDYWGQGVMVTVSS
VL: YELIQPPSASVTLGNTVSITCSGDELPKRYAYWYQQKPDKSIVRVIYKDSERPSGISDRFSGSSSGTTATLTISDTQAEDEADYYCHSTYSDDKLPVFGGGTKLTVLG
notes: co-expressed with the #10-22 chimeric antibody H chain in CHO-K1 cells; also called #10-22 chimeric antibody (L chain) site substitution variant R76S
B4: K42Q (antibody, human IgG1, lambda, V domains shown)
VH: B3 VH
VL: B3 VL with K40Q, S74R
notes: co-expressed with the #10-22 chimeric antibody H chain in CHO-K1 cells; also called #10-22 chimeric antibody (L chain) site substitution variant K42Q
B5: S59P (antibody, human IgG1, lambda, V domains shown)
VH: B3 VH
VL: B3 VL with S57P, S74R
notes: co-expressed with the #10-22 chimeric antibody H chain in CHO-K1 cells; also called #10-22 chimeric antibody (L chain) site substitution variant S59P
B6: D77G (antibody, human IgG1, lambda, V domains shown)
VH: B3 VH
VL: B3 VL with S74R, D75G
notes: co-expressed with the #10-22 chimeric antibody H chain in CHO-K1 cells; also called #10-22 chimeric antibody (L chain) site substitution variant D77G

Key:
[1] = target: T1, HMGB1 C-terminal region synthetic …; experiment: dot blotting, peptide at 4 µg/spot, antibody at 1 µg/ml
Description: (§1) To identify the positions of amino acids where the epitope of EV007156 against HMGB1 was located from among those constituting the C-terminal end of HMGB1, peptide mapping was conducted. Namely, 9 types of 12-residue long amino acids at 3 residue intervals and the most C-terminal 8 residues, i.e., 10 peptides in total (#1. […] (SEQ ID NO: 51), #2. […] (SEQ ID NO: 52), #3. […] (SEQ ID NO: 53), #4. EEDEEEEEDEED (SEQ ID NO: 54), #5. DEEEEEDEEDED (SEQ ID NO: 55), #6. […] (SEQ ID NO: 56), #7. EEDEEDEDEEED (SEQ ID NO: 57), #8. […] (SEQ ID NO: 58), #9. […] (SEQ ID NO: 59), #10. […] (SEQ ID NO: 60)) were designed to cover all the amino acids constituting the C-terminal region of HMGB1. The peptides thus synthesized (SIGMA-ALDRICH, PEPScreen) were each dissolved at 4 mg/ml in a 0.1 M ammonium acetate solution and added dropwise at 4 μg/spot onto a nitrocellulose membrane. After drying, the membrane was blocked with 5% skimmed milk-TBST for 90 minutes. EV007156 was then reacted for 1 hour at a concentration of 1 μg/ml. Subsequently, HRP-labeled anti-human IgG antibody (MBL, #208) was reacted for 1 hour, followed by detection using ECL prime (GE Healthcare, RPN2232) (FIG. 18). […], and more particularly the most C-terminal 8 residues (#10. […] (SEQ ID NO: 60)).

[2] = target: T2, HMGB1 most C-terminal 8 residues …; experiment: as above
Description: as §1

[3] = target: T3, human-derived recombinant HMGB1 …; experiment: competition ELISA, inhibition of HMGB1 binding to immobilized RAGE-Fc
Description: RAGE-Fc (R&D, 250 ng/well) was immobilized overnight at 4° C. on immunoplates (Nunc, Maxisorp) and 5% BSA (bovine serum albumin) was added thereto to block the plates for 2 hours, followed by addition of human monoclonal antibody (Control Ig) to block the plates for 2 hours. HMGB1 (Sf6-derived recombinant HMGB1, final concentration: 2 μg/ml) was mixed with anti-HMGB1 antibody (#10-22 chimera, EV007156 or G4) or non-HMGB1-specific human monoclonal antibody (Control Ig) serving as a negative control antibody at a final concentration of 0, 0.02, 0.2, 2 or 20 μg/ml and incubated for 60 minutes. Subsequently, the reaction solutions were added to the immunoplates and reacted for 2 hours. Then, anti-HMGB1 antibody (Abnova, #H00003146-M08, 1 μg/ml) which had been biotinylated with a Biotin Labeling Kit (Dojindo, LK03) was reacted at room temperature for 1 hour. Finally, HRP-labeled streptavidin was reacted at room temperature for 1 hour. TMB (3,3′,5,5′-tetramethylbenzidine; SureBlue, KPL, #52-00-03) was added and HMGB1 bound to RAGE was detected by absorbance at 450 nm (FIG. 10). #10-22 chimera, EV007156 and G4 were all found to inhibit the binding of HMGB1 to RAGE in a manner dependent on the added antibody concentration.

[4] = target: T4, bovine thymus-derived HMGB1; experiment: ELISA on HMGB1-immobilized immunoplate, antibodies adjusted to an equal concentration; OD as % of #10-22 chimera (source of the HMGB1 not named for this figure)

Binder	binding result [4]	further results
B1	–	binding result [1]: binds; binding result [2]: binds
B2	–	IC50 [3]: 3.04 µg/mL
B3	binds	–
B4	binds	–
B5	binds	–
B6	binds	–

From patent publication US20150361164A1 (EVEC, published 2015)
